Source: patent US20080261267A1, “Cellulases from Rumen” (priority 2004, published 2008)

B1: pBKRR.14: rumen endoglucanase, sequences FIG. 16/24; also capable of hydrolyzing xylan (protein)
chain: MINVLQHHPEVELSVDKTSVSFNRSGGEETFTVTSSTQPHVSADVSWVVVETGKIDKDHHTEVRVLAGANRKEASAGTLTVSCSDKKVSVSVKQEAFVAPSVASTTAVTPQMVFDAMGPGWNMGNHMDAISNGVSGETVWGNPKCTQATMDGVKAAGYKAVRICTTWEGHIGAAPAYALEQKWLDRVAEIVGYAEKAGLVAIVNTHHDESYWQDISKCYNNAANHEKVKDEVFSVWTQIAEKFKDKGEWLVFESFNEIQDGGWGWSDAFRKNPDAQYKVLNEWNQTFVDAVRSTGGQNATRWLGIPGYACNPGFTIAGLVLPKDYTTANRLMVAVHDYDPYDYTLKDPLIRQWGHTADADKRPSGDNEKAVVDVFNNLKAAYLDKGIPVYLGEMGCSRHTAADFPYQKYYMEYFCKAAADRLLPMYLWDNGAKGVGSERHAYIDHGTGQFVDEDARTLVGLMVKAVTTKDASYTLESVYNSAP
modifications: Description of sequence sequence derived from genomic DNA library from rumen ecosystem, particularly amino acid sequence of clones pBKRR 14 and 20-1; RR14=RR20-1;(see Figure 24)
notes: also capable of hydrolyzing xylan
B2: pBKRR.22: rumen endo-beta-1,4-glucanase, sequences FIG. 11/19 (protein)
chain: MLLASFSLFSCGGSDGDDSTPTPSVSLQLVSQSIAEGAQVDAASTTVLTLNYNNPVRVTGNGVTLNGIAVKAKVSGNTSVEIPLTLVEGTVYTLKVAWGAIVAAADGKVVAPEFTLNFTTKGNQQPPIDENSPIAKKMGWGWNLGNHFDTSSGADGVRPQWGYWDNAKPTQVLYNNLRNAGTSTVRIGVTWGNYQNTSNWDIDANYIAEVRQNVEWAEAAGLNVILNMHHDEYWLDIKGAANNSSTNTNIKNRIEKTWKQIAEAFKDKGEFLIFESFNEIQDGGWGWGANRTDGGKQYKTLNEWNQLVVNTIRATGGNNATRWIGIPSYAANPSLALETGFVLPTDAANRLMVSVHFYDPSNFTLSPYVSDDSSEYKSGGYSEWGHTAAKGKADTGSNEDHVVAIFKKLHDKFVAKNIPVYIGEYGCVMHKNTRSNYFRNYYLEYVCRAAHEYGMPLCIWDNNQTGGGNEHHGYFNHTDGQYLNAMESLVKTMIKAATSDDASYTLESVYNKAPK
modifications: Description of sequence sequence derived from genomic DNA library from rumen ecosystem, particularly amino acid sequence of clones pBKRR 22, 6, 8 and 23;(see Figure 19)

Tests used:
[1] = TLC analysis of hydrolysis products; assay type: biochemical; conditions: pH 5.6, 50° C.
From the text: FIG. 7 depicts the result of thin layer chromatography TLC analysis of products of CMC hydrolyzed by endoglucanases derived from a rumial genomic DNA library. The methods used for cellulase and substrate preparation, hydrolysis, TLC, and visualization are described in Example 5. The hydrolysis products glucose, cellobiose, cellotriose are shown an the right side. […] Different pattern was found when using short-chain beta-1,4-glucans.
The products formed by hydrolysis of cellulose-based substrates (cellobiose, cellotetraose, cellopentaose, cellulose and carboxymethyl cellulose) were analysed by thin-layer chromatography (TLC). Solutions containing 20 μg of E. coli cell lysate proteins and 0.2% (wt/vol) substrate in 50 mM acetate buffer (pH 5.6) were incubated at 50° C. until maximum conversion was achieved. The reactions were terminated by heating the preparation for 5 min at 95° C. and hydrolysis products were separated by TLC on silica gel plates (Merck, Darmstadt, Germany) by using a mixture chloroform, glacial acetic acid, and water (6:14:1) as the solvent. […] Sugars were visualized by heating 105° C. for 15 min the plates which were previously sprayed with a reagent containing amine (2 ml), diphenylamine (2 g), acetone (100 ml) and 85% H3PO4 (15 ml).

[2] = Detergent resistance (effect of surfactants on activity); assay type: biochemical
Protocol: The detergent resistance or in other words the effect of surfactants on the activity of the polypeptide of the invention was measured. […] Also, the effect of several commonly used inhibitors on the activity of the polypeptide of the invention was investigated. Sulfhydryl inhibitors such as N-ethylmaleimide, iodoacetate and p-chloromercuribenzoate were all inhibitory. The chelating agents EDTA (ethylenediaminetetraacetic acid) and EGTA (ethyleneglycoltetraacetic acid) a more efficient chelator of Ca^2+ (inhibition >30%) and O-phenanthroline (inhibition >71%) had essentially no effect on the activity of the polypeptides or were slightly stimulatory. In summary, the polypeptides of the invention are well suited to be used for the treatment of cellulosic textiles or fabrics, especially as an ingredient in a detergent composition, because of their high activity at high pH and high stability against metal ions or various components of laundry products such as surfactants, chelating agents or proteinases. In general, they are also suited to be used in compositions containing several commonly used inhibitors.
FIG. 3 represents Table 3 giving an overview over the biochemical properties of the cellulases according to the invention. Reaction was performed at the optimum pH and temperature for each done using CMC as substrate. […] The values for clones pBKRR.1, 9, 11, 13, 14, 16 and 22 are depicted. For each clone the following data are given: • maximum pH at which the remaining activity after 24 h incubation at the indicate pH is >90% (column “Stable at pH”). […] Activity was measured after 2 h incubation and compared with a control reaction in buffer lacking dimethylsulfoxide, • detergent resistance given by the remaining activity in the corresponding buffer (optimum pH) containing the indicate detergent at a concentration for 0 to 3%. […] The effect of mono- (Na^+, K^+, NH4^+, and divalent cations (Ca^2+, Mn^2+, Mg^2+, Sr^2+, Fe^2+, Cu^2+, Ni^2+, Co^2+, Zn^2+) was first examined by treating the enzyme with chelating agents (EDTA and EGTA) to remove any endogenous divalent cations, followed by adding cations to the reaction mixture.
To study the effect of cations, inhibitors and surfactants on endoglucanase activity, the conditions were as follows: All cations tested were added as chloride salts and tested at a concentration of 10 mM. […] The effects of detergents on the endoglucanase activity was analysed by adding of 1-3% (wt/vol) detergent to the enzyme solution. In all cases, the enzyme activity was assayed in triplicate using the standard cellulose assay described above and the residual activity was expressed as percent of the control value (without addition of chemicals).

Molecule	main hydrolysis products of CMC [1]	activity in the presence of SDS (% more active and stable) ([2]; SDS 1-3%, 2 h incubation, versus control without detergent)	activity in the presence of Triton X-100 (% more active and stable) ([2]; Triton X-100 1-3%, 2 h incubation, versus control without detergent, pH and temperature per clone)	effect of SDS on activity ([2]; SDS 1 mM or higher)	effect of Triton X-100 on activity ([2]; Triton X-100 up to 1-3%)
B1	cellobiose and cellotriose	161%	134%		
B2	cellobiose and cellotriose			inhibited by SDS at concentrations higher than 1 mM	resistant to Triton X-100 up to 1-3%
